T1: Abp1, P15891
T1 sequence (P15891 535-592, looked up): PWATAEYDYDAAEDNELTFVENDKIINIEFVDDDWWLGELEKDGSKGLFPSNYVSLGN

T2: Nbp2, Q12163
T2 sequence (Q12163 103-180, looked up): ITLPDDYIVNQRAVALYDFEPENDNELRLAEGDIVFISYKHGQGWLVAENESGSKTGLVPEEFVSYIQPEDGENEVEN

T3: Pex13, P80667
T3 sequence (P80667 295-386, looked up): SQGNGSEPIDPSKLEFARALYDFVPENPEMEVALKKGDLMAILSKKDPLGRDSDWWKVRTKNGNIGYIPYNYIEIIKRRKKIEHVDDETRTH

T4: Cyk3, Q07533
T4 sequence (Q07533 1-83, looked up): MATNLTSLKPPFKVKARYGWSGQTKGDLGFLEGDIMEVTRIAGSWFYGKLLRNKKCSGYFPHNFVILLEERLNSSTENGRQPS

T5: Sla1-3, P32790
T5 sequence (P32790 344-424, looked up): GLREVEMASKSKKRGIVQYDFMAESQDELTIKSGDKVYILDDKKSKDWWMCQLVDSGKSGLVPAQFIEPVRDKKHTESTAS

T6: Bzz1-2, P38822
T6 sequence (P38822 568-633, looked up): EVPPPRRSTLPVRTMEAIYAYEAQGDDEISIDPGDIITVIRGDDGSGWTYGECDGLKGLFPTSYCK

T7: Pin3, Q06449
T7 sequence (Q06449 53-122, looked up): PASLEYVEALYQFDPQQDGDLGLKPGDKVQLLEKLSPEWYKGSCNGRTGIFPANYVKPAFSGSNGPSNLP

T8: Fus1, P11710
T8 sequence (P11710 432-512, looked up): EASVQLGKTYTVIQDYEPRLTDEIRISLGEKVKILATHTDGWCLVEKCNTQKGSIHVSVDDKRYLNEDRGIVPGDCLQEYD

T9: Cdc25, P04821
T9 sequence (P04821 50-136, looked up): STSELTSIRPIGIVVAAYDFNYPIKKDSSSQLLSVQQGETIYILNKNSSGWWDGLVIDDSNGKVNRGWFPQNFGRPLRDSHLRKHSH

T10: Bbc1, P47068
T10 sequence (P47068 1-78, looked up): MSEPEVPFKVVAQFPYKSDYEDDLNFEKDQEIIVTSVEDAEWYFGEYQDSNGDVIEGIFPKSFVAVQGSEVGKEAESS

T11: Lsb3, P43603
T11 sequence (P43603 385-451, looked up): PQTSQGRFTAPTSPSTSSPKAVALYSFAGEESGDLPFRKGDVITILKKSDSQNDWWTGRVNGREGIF

T12: Boi1, P38041
T12 sequence (P38041 1-86, looked up): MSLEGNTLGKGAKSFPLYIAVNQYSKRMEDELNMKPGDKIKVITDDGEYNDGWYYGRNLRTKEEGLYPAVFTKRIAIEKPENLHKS

T13: Lsb4, P32793
T13 sequence (P32793 402-468, looked up): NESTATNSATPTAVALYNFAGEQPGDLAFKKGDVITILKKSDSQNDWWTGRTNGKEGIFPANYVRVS

T14: Hse1, P38753
T14 sequence (P38753 208-285, looked up): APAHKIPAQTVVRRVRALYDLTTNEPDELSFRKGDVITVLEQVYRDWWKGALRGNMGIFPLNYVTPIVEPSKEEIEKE

T15: Bud14, P27637
T15 sequence (P27637 247-328, looked up): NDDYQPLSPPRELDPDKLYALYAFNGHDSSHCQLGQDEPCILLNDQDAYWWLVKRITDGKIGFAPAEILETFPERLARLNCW

T16: Lsb1, P53281
T16 sequence (P53281 45-122, looked up): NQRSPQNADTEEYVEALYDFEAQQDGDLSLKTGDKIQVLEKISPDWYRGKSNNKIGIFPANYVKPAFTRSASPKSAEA

T17: Myo5, Q04439
T17 sequence (Q04439 1072-1160, looked up): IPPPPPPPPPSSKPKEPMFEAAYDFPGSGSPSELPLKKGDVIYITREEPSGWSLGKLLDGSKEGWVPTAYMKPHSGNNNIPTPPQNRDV

T18: Hof1, Q05080
T18 sequence (Q05080 590-669, looked up): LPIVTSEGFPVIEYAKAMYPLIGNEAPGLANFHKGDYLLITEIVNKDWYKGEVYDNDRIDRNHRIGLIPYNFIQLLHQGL

T19: Boi2, P39969
T19 sequence (P39969 32-116, looked up): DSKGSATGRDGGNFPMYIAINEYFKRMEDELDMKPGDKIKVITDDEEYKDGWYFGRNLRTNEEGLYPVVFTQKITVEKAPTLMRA

T20: Bzz1-1, P38822
T20 sequence (P38822 478-572, looked up): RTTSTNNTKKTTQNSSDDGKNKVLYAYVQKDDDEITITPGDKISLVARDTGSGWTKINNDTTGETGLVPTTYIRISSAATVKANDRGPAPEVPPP

T21: Sla1-2, P32790
T21 sequence (P32790 60-140, looked up): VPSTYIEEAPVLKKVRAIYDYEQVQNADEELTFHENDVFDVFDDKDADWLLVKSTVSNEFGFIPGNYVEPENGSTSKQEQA


Legend:
Assay in all cases: SPOT array
Abp1, P15891 = target: T1, Abp1, P15891; settings: median of control spots 935
Bem1-2, P29366 = settings: median of control spots 4347
Chain of Bem1-2, P29366 (P29366 139-227): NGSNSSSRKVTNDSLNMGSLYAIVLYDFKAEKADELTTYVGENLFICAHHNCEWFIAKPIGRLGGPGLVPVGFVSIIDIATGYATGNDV

Nbp2, Q12163 = target: T2, Nbp2, Q12163; settings: median of control spots 357
Pex13, P80667 = target: T3, Pex13, P80667; settings: median of control spots 1341
Cyk3, Q07533 = target: T4, Cyk3, Q07533; settings: median of control spots 1451
GST = settings: median of control spots 978
Sla1-3, P32790 = target: T5, Sla1-3, P32790; settings: median of control spots 5475
Bzz1-2, P38822 = target: T6, Bzz1-2, P38822; settings: median of control spots 4538
Pin3, Q06449 = target: T7, Pin3, Q06449; settings: median of control spots 2171
Fus1, P11710 = target: T8, Fus1, P11710; settings: median of control spots 1200
Cdc25, P04821 = target: T9, Cdc25, P04821; settings: median of control spots 969
Bbc1, P47068 = target: T10, Bbc1, P47068; settings: median of control spots 796
Bem1-1, P29366 = settings: median of control spots 4282
Chain of Bem1-1, P29366 (P29366 55-141): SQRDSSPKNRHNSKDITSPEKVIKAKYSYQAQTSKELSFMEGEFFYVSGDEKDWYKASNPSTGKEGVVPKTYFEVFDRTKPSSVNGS

Lsb3, P43603 = target: T11, Lsb3, P43603; settings: median of control spots 406
Boi1, P38041 = target: T12, Boi1, P38041; settings: median of control spots 1162
Lsb4, P32793 = target: T13, Lsb4, P32793; settings: median of control spots 397
Myo3, P36006 = settings: median of control spots 468
Hse1, P38753 = target: T14, Hse1, P38753; settings: median of control spots 1727
Bud14, P27637 = target: T15, Bud14, P27637; settings: median of control spots 956
Lsb1, P53281 = target: T16, Lsb1, P53281; settings: median of control spots 388
Sho1, P40073 = settings: median of control spots 1148
Chain of Sho1, P40073 (P40073 287-367): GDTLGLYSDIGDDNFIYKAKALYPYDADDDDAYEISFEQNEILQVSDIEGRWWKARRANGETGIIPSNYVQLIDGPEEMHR

Myo5, Q04439 = target: T17, Myo5, Q04439; settings: median of control spots 471
Hof1, Q05080 = target: T18, Hof1, Q05080; settings: median of control spots 4086
Boi2, P39969 = target: T19, Boi2, P39969; settings: median of control spots 1161
Bzz1-1, P38822 = target: T20, Bzz1-1, P38822; settings: median of control spots 4446
Rvs167, P39743 = settings: median of control spots 2707
Chain of Rvs167, P39743 (P39743 419-482): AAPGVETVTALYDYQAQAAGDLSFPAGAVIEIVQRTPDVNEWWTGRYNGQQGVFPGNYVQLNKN

Sla1-2, P32790 = target: T21, Sla1-2, P32790; settings: median of control spots 712

Binder | SPOT intensity (Abp1, P15891) | SPOT intensity (Bem1-2, P29366) | SPOT intensity (Nbp2, Q12163) | SPOT intensity (Pex13, P80667) | SPOT intensity (Cyk3, Q07533) | SPOT intensity (GST) | SPOT intensity (Sla1-3, P32790) | SPOT intensity (Bzz1-2, P38822) | SPOT intensity (Pin3, Q06449) | SPOT intensity (Fus1, P11710) | SPOT intensity (Cdc25, P04821) | SPOT intensity (Bbc1, P47068) | SPOT intensity (Bem1-1, P29366) | SPOT intensity (Lsb3, P43603) | SPOT intensity (Boi1, P38041) | SPOT intensity (Lsb4, P32793) | SPOT intensity (Myo3, P36006) | SPOT intensity (Hse1, P38753) | SPOT intensity (Bud14, P27637) | SPOT intensity (Lsb1, P53281) | further results
NFFRKKLGIPRKLKR | 99 | 13 | 72 | 14 | 4 | 0 | 58 | 7 | 7 | 219 | 138 | 101 | 1 | 1 | 14 | 1 | 3 | 130 | 43 | 234 | SPOT intensity (Sho1, P40073): 107; SPOT intensity (Myo5, Q04439): 0; SPOT intensity (Hof1, Q05080): 29; SPOT intensity (Boi2, P39969): 2; SPOT intensity (Bzz1-1, P38822): 0; SPOT intensity (Rvs167, P39743): 3; SPOT intensity (Sla1-2, P32790): 0
RRLRDKYKLPIVDAD | 18 | 2 | 7 | 0 | 1 | 0 | 34 | 2 | 0 | 58 | 18 | 14 | 0 | 0 | 6 | 0 | 0 | 9 | 26 | 48 | SPOT intensity (Sho1, P40073): 19; SPOT intensity (Myo5, Q04439): 0; SPOT intensity (Hof1, Q05080): 9; SPOT intensity (Boi2, P39969): 0; SPOT intensity (Bzz1-1, P38822): 0; SPOT intensity (Rvs167, P39743): 1; SPOT intensity (Sla1-2, P32790): 0
WRPRIVPILPYITRL | 10 | 94 | 1 | 10 | 0 | 0 | 9 | 0 | 8 | 8 | 14 | 87 | 0 | 0 | 0 | 6 | 0 | 11 | 2 | 22 | SPOT intensity (Sho1, P40073): 3; SPOT intensity (Myo5, Q04439): 0; SPOT intensity (Hof1, Q05080): 770; SPOT intensity (Boi2, P39969): 0; SPOT intensity (Bzz1-1, P38822): 0; SPOT intensity (Rvs167, P39743): 36; SPOT intensity (Sla1-2, P32790): 0

Second part, led by results:

SPOT intensity (Abp1, P15891) | SPOT intensity (Bem1-2, P29366) | SPOT intensity (Nbp2, Q12163) | SPOT intensity (Pex13, P80667) | SPOT intensity (Cyk3, Q07533) | SPOT intensity (GST) | SPOT intensity (Sla1-3, P32790) | SPOT intensity (Bzz1-2, P38822) | SPOT intensity (Pin3, Q06449) | SPOT intensity (Fus1, P11710) | SPOT intensity (Cdc25, P04821) | SPOT intensity (Bbc1, P47068) | SPOT intensity (Bem1-1, P29366) | SPOT intensity (Lsb3, P43603) | SPOT intensity (Boi1, P38041) | SPOT intensity (Lsb4, P32793) | SPOT intensity (Myo3, P36006) | SPOT intensity (Hse1, P38753) | SPOT intensity (Bud14, P27637) | SPOT intensity (Lsb1, P53281) | Binder | further results
26 | 0 | 2 | 3 | 0 | 0 | 31 | 7 | 7 | 3 | 12 | 9 | 1 | 4 | 4 | 0 | 1 | 10 | 4 | 175 | KLSRGRYGLPLSSRP | SPOT intensity (Sho1, P40073): 31; SPOT intensity (Myo5, Q04439): 0; SPOT intensity (Hof1, Q05080): 8; SPOT intensity (Boi2, P39969): 1; SPOT intensity (Bzz1-1, P38822): 0; SPOT intensity (Rvs167, P39743): 3; SPOT intensity (Sla1-2, P32790): 1
157 | 6 | 183 | 1 | 7 | 1 | 33 | 5 | 0 | 29 | 61 | 308 | 0 | 6 | 39 | 7 | 7 | 11 | 29 | 4 | TKRKRPARLIFYDSK | SPOT intensity (Sho1, P40073): 91; SPOT intensity (Myo5, Q04439): 3; SPOT intensity (Hof1, Q05080): 4; SPOT intensity (Boi2, P39969): 9; SPOT intensity (Bzz1-1, P38822): 0; SPOT intensity (Rvs167, P39743): 0; SPOT intensity (Sla1-2, P32790): 2
25 | 0 | 57 | 4 | 0 | 0 | 20 | 3 | 0 | 31 | 18 | 39 | 0 | 0 | 3 | 0 | 0 | 19 | 3 | 0 | KRRTSLFPWLHKPGI | SPOT intensity (Sho1, P40073): 61; SPOT intensity (Myo5, Q04439): 0; SPOT intensity (Hof1, Q05080): 5; SPOT intensity (Boi2, P39969): 0; SPOT intensity (Bzz1-1, P38822): 0; SPOT intensity (Rvs167, P39743): 0; SPOT intensity (Sla1-2, P32790): 0

Source: PMC2756588
